The target in the assay is Rhs2 C-terminal toxin domain (Rhs2CT), His6 tag removed, as in the Rhs2CT-RhsI2-EF-Tu complex (Serratia marcescens Db10). The assay is described as follows: SEC.

“RhsI2 immunity protein, untagged (natural protein)”: the stoichiometry N is 1.
Substance “E. coli elongation factor thermo-unstable (EF-Tu) (from UniProt P0CE47 1-394) (natural protein)” yielded a stoichiometry N of 1.

The values are drawn from publication doi:10.1101/2025.10.28.685041.
